Test results published in patent US20180201654A1 (UNIVERSITY OF SOUTHERN CALIFORNIA, published 2018).

Tests used:
[1] = molecular target: T1, HAUSP (Herpes virus-associated ubiquitin-specific protease), full length (human, UniProt Q93009 1-1102); assay: co-immunoprecipitation from transfected 293T cells, IP: V5, IB: Flag
T1 construct: also called USP7; Flag-HAUSP

[2] = molecular target: T1, HAUSP (Herpes virus-associated …); assay: GST pulldown from transfected cells, immunoblot with anti-HAUSP antibody
[3] = molecular target: T1, HAUSP (Herpes virus-associated …); assay: GST pulldown from transfected 293T cells, IB: Flag
[4] = molecular target: T1, HAUSP (Herpes virus-associated …); assay: co-immunoprecipitation from transfected 293T cells, IP: V5, IB: Flag; remark: listed apart in the source
[5] = molecular target: T2, HAUSP TRAF domain (HAUSP^62-205) (human, UniProt Q93009 62-205); assay: ITC, titration against the HAUSP TRAF domain, 20 C
T2 construct: also called TRAF-like domain of HAUSP
T2 sequence (Q93009 62-205): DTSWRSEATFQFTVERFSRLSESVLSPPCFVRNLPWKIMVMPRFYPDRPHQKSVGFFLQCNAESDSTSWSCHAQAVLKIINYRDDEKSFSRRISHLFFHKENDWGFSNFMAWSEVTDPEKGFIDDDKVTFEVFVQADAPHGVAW

T1 sequence (Q93009 whole entry): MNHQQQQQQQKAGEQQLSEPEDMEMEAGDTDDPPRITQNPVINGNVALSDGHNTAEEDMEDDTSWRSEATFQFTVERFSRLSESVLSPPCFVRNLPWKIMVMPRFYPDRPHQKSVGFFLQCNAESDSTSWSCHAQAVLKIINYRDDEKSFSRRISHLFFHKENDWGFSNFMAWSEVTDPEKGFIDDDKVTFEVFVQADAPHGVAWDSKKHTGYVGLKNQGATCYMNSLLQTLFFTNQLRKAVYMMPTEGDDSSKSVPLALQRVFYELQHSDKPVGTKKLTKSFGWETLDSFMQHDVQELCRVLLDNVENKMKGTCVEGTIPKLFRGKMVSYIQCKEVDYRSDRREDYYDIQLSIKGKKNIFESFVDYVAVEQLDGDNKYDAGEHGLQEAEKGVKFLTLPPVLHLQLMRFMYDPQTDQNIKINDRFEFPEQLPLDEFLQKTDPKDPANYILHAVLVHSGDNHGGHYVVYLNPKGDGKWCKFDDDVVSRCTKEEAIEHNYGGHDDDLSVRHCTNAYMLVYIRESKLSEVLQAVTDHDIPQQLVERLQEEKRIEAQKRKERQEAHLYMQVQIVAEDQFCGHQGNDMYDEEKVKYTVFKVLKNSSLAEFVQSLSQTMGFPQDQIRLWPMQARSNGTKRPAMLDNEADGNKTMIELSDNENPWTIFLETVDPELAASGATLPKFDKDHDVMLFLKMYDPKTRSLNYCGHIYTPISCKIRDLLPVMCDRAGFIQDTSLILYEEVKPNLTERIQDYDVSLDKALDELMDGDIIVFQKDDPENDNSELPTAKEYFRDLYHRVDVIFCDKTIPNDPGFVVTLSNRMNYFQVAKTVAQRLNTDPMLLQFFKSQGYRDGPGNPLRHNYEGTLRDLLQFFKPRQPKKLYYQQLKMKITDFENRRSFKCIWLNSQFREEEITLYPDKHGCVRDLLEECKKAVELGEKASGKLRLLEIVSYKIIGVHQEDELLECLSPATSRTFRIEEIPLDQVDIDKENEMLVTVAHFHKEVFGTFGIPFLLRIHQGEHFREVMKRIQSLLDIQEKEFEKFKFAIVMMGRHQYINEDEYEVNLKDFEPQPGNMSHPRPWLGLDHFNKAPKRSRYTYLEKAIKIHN

B1: V5/vIRF4 1-758 (other)
single chain: MPKAGGSEWATLWIIDALENNKFPYFSWFDRNNLLFAAPAPLPAGSDIPPGWYSVYHAFDEECDRVYGPSPVVGQTVYGRFGRLLRGTRRAVVRNDLRYSDTFGGSYVVWQLVRTPFKNCTYCYGAAYGPEKLQRFIQCLLSPPMQTTATRRSDTREQSYEEAGAAAPAPPKAPSGLRGRPRKSNRYYNVGDITTEQKAACSVWIPVNEGASTSGMGSSGTRQVTQASSFTWRVPGDPPAPSTLTGPSDPHSSGAGLPGTAPPKPQHETRLAGTVSGVSGVAQTPGDTGQLAPPMRDGSRLPSTSPWIPACFPWGDLPVTGWWPQGASGLPEKVHPPTTGQFDPLSPRWTYTGIPSSQLNPAAPSWIPPHAQAGTFVGEFSQGAPLAPQGLLPQSGQCASAWLPRRETGAEGACGASTEGRAPQGAASERVYPFEPQPPSAPAPGYAKPSCYNWSPLAEPPATRPIRAPVWHPPVGHAVVPEVRTPLWIPWSSGGAPNQGLSHTQGGASATPSAGAPPTPEVAERQEPSSSGIPYVCQGDNMATGYRRVTTSSGALEVEIIDLTGDSDTPSTTVASTPLPVSGPRVFQPTVLYSAPEPAVNPEVSHLPTELERRECVCPGSGERPRVPLVSTYAGDRYAVGGYGPEQSLVPPPLGLPLTLSNLQGEDICTWEEGLGNILSELQEEPSSSTRQATDRRRPRSRSPHGRRTPVSHSGPEKPPSKMFFDPPDSQRVSFVVEIFVYGNLRGTLRREGDAGEA
binding result [1]: binds

B2: GST-vIRF4^220-236 (other)
chain: GTRQVTQASSFTWRVPG
notes: not shown: GST tag of the pEBG-GST vector
binding result [2]: binds

B3: V5/vIRF4 1-605 (other)
single chain: MPKAGGSEWATLWIIDALENNKFPYFSWFDRNNLLFAAPAPLPAGSDIPPGWYSVYHAFDEECDRVYGPSPVVGQTVYGRFGRLLRGTRRAVVRNDLRYSDTFGGSYVVWQLVRTPFKNCTYCYGAAYGPEKLQRFIQCLLSPPMQTTATRRSDTREQSYEEAGAAAPAPPKAPSGLRGRPRKSNRYYNVGDITTEQKAACSVWIPVNEGASTSGMGSSGTRQVTQASSFTWRVPGDPPAPSTLTGPSDPHSSGAGLPGTAPPKPQHETRLAGTVSGVSGVAQTPGDTGQLAPPMRDGSRLPSTSPWIPACFPWGDLPVTGWWPQGASGLPEKVHPPTTGQFDPLSPRWTYTGIPSSQLNPAAPSWIPPHAQAGTFVGEFSQGAPLAPQGLLPQSGQCASAWLPRRETGAEGACGASTEGRAPQGAASERVYPFEPQPPSAPAPGYAKPSCYNWSPLAEPPATRPIRAPVWHPPVGHAVVPEVRTPLWIPWSSGGAPNQGLSHTQGGASATPSAGAPPTPEVAERQEPSSSGIPYVCQGDNMATGYRRVTTSSGALEVEIIDLTGDSDTPSTTVASTPLPVSGPRVFQPTVLYSAPEPAVNPEVS
binding result [1]: binds

B4: V5/vIRF4 1-305 (other)
single chain: MPKAGGSEWATLWIIDALENNKFPYFSWFDRNNLLFAAPAPLPAGSDIPPGWYSVYHAFDEECDRVYGPSPVVGQTVYGRFGRLLRGTRRAVVRNDLRYSDTFGGSYVVWQLVRTPFKNCTYCYGAAYGPEKLQRFIQCLLSPPMQTTATRRSDTREQSYEEAGAAAPAPPKAPSGLRGRPRKSNRYYNVGDITTEQKAACSVWIPVNEGASTSGMGSSGTRQVTQASSFTWRVPGDPPAPSTLTGPSDPHSSGAGLPGTAPPKPQHETRLAGTVSGVSGVAQTPGDTGQLAPPMRDGSRLPSTS
binding result [1]: binds

B5: GST-vIRF4 1-153 (other)
single chain: MPKAGGSEWATLWIIDALENNKFPYFSWFDRNNLLFAAPAPLPAGSDIPPGWYSVYHAFDEECDRVYGPSPVVGQTVYGRFGRLLRGTRRAVVRNDLRYSDTFGGSYVVWQLVRTPFKNCTYCYGAAYGPEKLQRFIQCLLSPPMQTTATRRS
binding result [3]: no binding

B6: GST-vIRF4^202-256 (other)
chain: SVWIPVNEGASTSGMGSSGTRQVTQASSFTWRVPGDPPAPSTLTGPSDPHSSGAG
notes: as for B2
binding result [2]: binds

B7: V5/vIRF4 1-454 (other)
single chain: MPKAGGSEWATLWIIDALENNKFPYFSWFDRNNLLFAAPAPLPAGSDIPPGWYSVYHAFDEECDRVYGPSPVVGQTVYGRFGRLLRGTRRAVVRNDLRYSDTFGGSYVVWQLVRTPFKNCTYCYGAAYGPEKLQRFIQCLLSPPMQTTATRRSDTREQSYEEAGAAAPAPPKAPSGLRGRPRKSNRYYNVGDITTEQKAACSVWIPVNEGASTSGMGSSGTRQVTQASSFTWRVPGDPPAPSTLTGPSDPHSSGAGLPGTAPPKPQHETRLAGTVSGVSGVAQTPGDTGQLAPPMRDGSRLPSTSPWIPACFPWGDLPVTGWWPQGASGLPEKVHPPTTGQFDPLSPRWTYTGIPSSQLNPAAPSWIPPHAQAGTFVGEFSQGAPLAPQGLLPQSGQCASAWLPRRETGAEGACGASTEGRAPQGAASERVYPFEPQPPSAPAPGYAKPSCYNW
binding result [1]: binds

B8: vIRF4 (Kaposi's-sarcoma-associated-herpesvirus vIRF4), full length wild type (other)
chain: MPKAGGSEWATLWIIDALENNKFPYFSWFDRNNLLFAAPAPLPAGSDIPPGWYSVYHAFDEECDRVYGPSPVVGQTVYGRFGRLLRGTRRAVVRNDLRYSDTFGGSYVVWQLVRTPFKNCTYCYGAAYGPEKLQRFIQCLLSPPMQTTATRRSDTREQSYEEAGAAAPAPPKAPSGLRGRPRKSNRYYNVGDITTEQKAACSVWIPVNEGASTSGMGSSGTRQVTQASSFTWRVPGDPPAPSTLTGPSDPHSSGAGLPGTAPPKPQHETRLAGTVSGVSGVAQTPGDTGQLAPPMRDGSRLPSTSPWIPACFPWGDLPVTGWWPQGASGLPEKVHPPTTGQFDPLSPRWTYTGIPSSQLNPAAPSWIPPHAQAGTFVGEFSQGAPLAPQGLLPQSGQCASAWLPRRETGAEGACGASTEGRAPQGAASERVYPFEPQPPSAPAPGYAKPSCYNWSPLAEPPATRPIRAPVWHPPVGHAVVPEVRTPLWIPWSSGGAPNQGLSHTQGGASATPSAGAPPTPEVAERQEPSSSGIPYVCQGDNMATGYRRVTTSSGALEVEIIDLTGDSDTPSTTVASTPLPVSGPRVFQPTVLYSAPEPAVNPEVSHLPTELERRECVCPGSGERPRVPLVSTYAGDRYAVGGYGPEQSLVPPPLGLPLTLSNLQGEDICTWEEGLGNILSELQEEPSSSTRQATDRRRPRSRSPHGRRTPVSHSGPEKPPSKMFFDPPDSQRVSFVVEIFVYGNLRGTLRREGDAGEAMLCSWPVGDTLGHLCQSFVPELLRIPRLTVPSPEQMEILNRVFEGLGHGFPIFCSMSGIYSRNATQVEGWWFGNPNSRYERILRSFSPRVPQQLFNTARYLATTAAIPQTPLSVNPVTCGTVFFGASPASTENFQNVPLTVKIFIGSIWDSLH
binding result [4]: binds

B9: vIRF4^153-216 (other)
chain: SDTREQSYEEAGAAAPAPPKAPSGLRGRPRKSNRYYNVGDITTEQKAACSVWIPVNEGASTSGM
Ka [5]: 1.84e+06 M⁻¹
Kd [5]: 540 nM
TΔS [5]: -7.35 kcal/mol
n [5]: 0.82
ΔG [5]: -8.41 kcal/mol
ΔH [5]: -15.8 kcal/mol

B10: GST-vIRF4 153-305 (other)
single chain: SDTREQSYEEAGAAAPAPPKAPSGLRGRPRKSNRYYNVGDITTEQKAACSVWIPVNEGASTSGMGSSGTRQVTQASSFTWRVPGDPPAPSTLTGPSDPHSSGAGLPGTAPPKPQHETRLAGTVSGVSGVAQTPGDTGQLAPPMRDGSRLPSTS
binding result [3]: binds
